The record followed here is patent US11653679B2, “High-purity steviol glycosides” (PureCircle Sdn Bhd, priority 2014, dated 2023).

Experiment [1] in a line: Transformation of Stevioside to Rebaudioside A with UGT76G1 lysate (Examples 4, 13), HPLC. Format: biochemical. The note with it: per mL of lysate; 1 U transforms 1 μmol in 1 hour at 30° C. and pH 7.2. The protocol: The total volume of the reaction was 5.0 mL with the following composition: 50 mM sodium phosphate buffer pH 7.2, 3 mM MgCl2, 2.5 mM UDP-glucose, 0.5 mM Stevioside and 500 μl, of UGT76G1 thawed lysate. The reactions were run at 30° C. on an orbitary shaker at 135 rpm. For each sample, 460 μL of the reaction mixture was quenched with 40 μL of 2N H2SO4 and 420 μL of methanol/water (6/4). The samples were immediately centrifuged and kept at 10° C. before analysis by HPLC (CAD).
(§1) Activity tests were performed on a 5 mL scale with 500 μL of thawed lysate for the transformation of Stevioside to Rebaudioside A and Rebaudioside D to Rebaudioside M using 0.5 mM of substrate, 2.5 mM of UDP-Glucose and 3 mM MgCl2 in 50 mM Sodium Phosphate buffer at pH 7.2. Samples were taken and analyzed by HPLC.

Experiment [2] is described as follows: Transformation of Rebaudioside D to Rebaudioside M with UGT76G1 (Examples 6, 13), HPLC. Format: biochemical. The note with it: per mL of lysate; 1 U transforms 1 μmol in 1 hour at 30° C. and pH 7.2. The procedure: The total volume of the reaction was 2 mL with the following composition: 50 mM sodium phosphate buffer pH 7.2, 3 mM MgCl2, 3.8 mM UDP-glucose, 0.5 mM Rebaudioside D and 180 μL of in-vitro produced UGT76G1. The reactions were run at 30° C. on an orbitary shaker at 135 rpm. For each sample, 400 μL of reaction mixture was quenched with 40 μL of 2N H2SO4 and 360 μL of 60% MeOH. After centrifugation, the supernatant was analyzed by HPLC (CAD).
as §1

B1: Example 10: UGT76G1 lysate prepared by pMAL plasmid and ArcticExpress expression strain (protein, UniProt Q6VAB4 1-458, looked up)
UDP-glycosyltransferase 76G1: MENKTETTVRRRRRIILFPVPFQGHINPILQLANVLYSKGFSITIFHTNFNKPKTSNYPHFTFRFILDNDPQDERISNLPTHGPLAGMRIPIINEHGADELRRELELLMLASEEDEEVSCLITDALWYFAQSVADSLNLRRLVLMTSSLFNFHAHVSLPQFDELGYLDPDDKTRLEEQASGFPMLKVKDIKSAYSNWQILKEILGKMIKQTKASSGVIWNSFKELEESELETVIREIPAPSFLIPLPKHLTASSSSLLDHDRTVFQWLDQQPPSSVLYVSFGSTSEVDEKDFLEIARGLVDSKQSFLWVVRPGFVKGSTWVEPLPDGFLGERGRIVKWVPQQEVLAHGAIGAFWTHSGWNSTLESVCEGVPMIFSDFGLDQPLNARYMSDVLKVGVYLENGWERGEIANAIRRVMVDEEGEYIRQNARVLKQKADVSLMKGGSSYESLESLVSYISSL
modifications: E. coli lysate, pMAL
notes: UGT76G1 lysate prepared by pMAL plasmid and ArcticExpress expression strain
For the molecule B1, the “Transformation activity Stevioside to Rebaudioside A” value in experiment [1] stood at 15 U mL^−1. Also, the “Transformation activity Rebaudioside D to Rebaudioside M” value in experiment [2] was found to be 0.25 U mL^−1.

B2: Example 11: UGT76G1 lysate prepared by pCOLDIII plasmid and ArcticExpress expression strain (protein, UniProt Q6VAB4 1-458, looked up)
UDP-glycosyltransferase 76G1: B1 UDP-glycosyltransferase 76G1
modifications: E. coli ArcticExpress lysate, pCOLDIII
notes: UGT76G1 lysate prepared by pCOLDIII plasmid and ArcticExpress expression strain
For the molecule B2, in experiment [1], the “Transformation activity Stevioside to Rebaudioside A” value is 15 U mL^−1. For the same molecule, in experiment [2], the “Transformation activity Rebaudioside D to Rebaudioside M” value amounted to 0.11 U mL^−1.
